Assay [1] deals with T1, human EphA4 extracellular region-SEAP-His protein (human, UniProt P54764 20-547).
T1 construct: also called hEphA4-SEAP-His
In words: competition ELISA, competitor human Ephrin B3-Fc. The protocol:
Antibody A obtained in Example 1 was evaluated for its inhibitory activity against the binding between human EphA4 and its human ligand according to the following steps. Each well of a 96-well plate (Nunc) was coated with an anti-alkaline phosphatase antibody (Thermo Fisher Scientific). After incubation overnight at 4° C., each well was blocked with 1% BlockAce (DS Pharma Biomedical) at room temperature for 1 hour. After washing with 0.05% Tween 20/PBS (Thermo Fisher Scientific) three times, the human EphA4 extracellular region-SEAP-His protein obtained by the method of Example 1 was added (final concentration: 10 nM) to each well and incubated at room temperature for 1 hour. After washing three times, ligands and serially diluted antibody A (0, 0.003, 0.01, 0.03, 0.1, 0.3, 1, 3, 10, 30, 100, 300, 1000, and 3000 nM) or an EphA4 inhibitor KYL peptide ([…], 0, 0.003, 0.01, 0.03, 0.1, 0.3, 1, 3, 10, 30, 100, 300, 1000, and 3000 μM, its synthesis was outsourced to Toray Research Center) were added to each well. The ligands used were biotinylated human Ephrin A5-Fc chimera (R&D Systems, final concentration: 0.7 nM) and biotinylated human Ephrin B3-Fc chimera (R&D Systems, final concentration: 2.3 nM). […] The absorbance at 450 nm was read using a microplate reader (Molecular Devices or PerkinElmer). […]

The target in assay [2] is T2, mouse EphA4 extracellular region-SEAP-His protein (mouse). Kind of assay: SPR (Biacore A100), antibody A captured on a rat anti-mouse IgG1 CM5 chip, mouse EphA4 extracellular region-SEAP-His as analyte at 0.8-50 nM, 1:1 fit. On the procedure:
The binding affinity of antibody A obtained in Example 1 for mouse and human EphA4 was determined by surface plasmon resonance (SPR) using Biacore A100 (GE Healthcare). First, a rat anti-mouse IgG₁ antibody produced with a conventional procedure by immunizing rat with a mouse IgG₁ antibody was immobilized on sensor chip CM5. The immobilization of the rat anti-mouse IgG1 antibody on sensor chip CM5 was performed by the amine coupling method using N-hydroxysuccinimide (NHS) and N-ethyl-N′-(3-dimethylaminopropyl)carbodiimide hydrochloride (EDC). Ethanolamine was used in blocking (the sensor chip and the reagents for immobilization were all manufactured by GE Healthcare). The antibody was diluted with a buffer solution for immobilization (10 mM sodium acetate, pH 4.5) into 1 to 2 μg/mL and immobilized on the sensor chip according to the protocol attached to Biacore A100. Antibody A was diluted with a running buffer solution HBS-EP (GE Healthcare, BR-1001-88), injected onto a flow cell for 120 seconds, and captured (amount of the antibody captured: approximately 70 to 100 RU). Subsequently, mouse or human EphA4 extracellular region-SEAP-His serially diluted in the range of 50, 25, 12.5, 6.3, 3.1, 1.6, 0.8, and 0 nM using HBS-EP was added to the sensor chip for 120 seconds. […]
On the technique in general: In SPR one partner is held on a chip, and binding of the other changes the refractive index at the surface.

Assay [3] has as its target T2, mouse EphA4 extracellular …. In words: SPR (Biacore T200), mouse EphA4 extracellular region-SEAP-His captured on an anti-His antibody CM5 chip, antibody as analyte at 0.6-50 nM, 1:1 fit (run alongside F(ab')2). On the procedure: (§1) Next, the binding affinity of antibody A-Fab and antibody A-F(ab′)₂ for mouse and human EphA4 was determined by surface plasmon resonance (SPR) using Biacore T200 (GE Healthcare). Antibody A obtained in Example 1 was used as a control for the comparison of each fragment. First, an anti-His tag antibody was immobilized on sensor chip CM5. The immobilization of the anti-His tag antibody on sensor chip CM5 was performed by the amine coupling method using N-hydroxysuccinimide (NHS) and N-ethyl-N′-(3-dimethylaminopropyl)carbodiimide hydrochloride (EDC). Ethanolamine was used in blocking (the sensor chip and the reagents for immobilization were all manufactured by GE Healthcare). The antibody was diluted with a buffer solution for immobilization (10 mM sodium acetate, pH 4.5) into 3 μg/mL and immobilized on the sensor chip according to the protocol attached to Biacore T200.
(§2) Mouse or human EphA4 extracellular region-SEAP-His protein was diluted with a running buffer solution HBS-EP (GE Healthcare, BR-1001-88), injected onto a flow cell for 120 seconds, and captured (amount of the protein captured: approximately 10 to 20 RU). Subsequently, antibody A (50, 16.7, 5.6, 1.9, 0.6, and 0 nM), antibody A-Fab (500, 166.7, 55.6, 18.5, 6.2, and 0 nM), or antibody A-F(ab′)₂ (50, 16.7, 5.6, 1.9, 0.6, and 0 nM) serially diluted using HBS-EP was added to the sensor chip for 120 seconds. Binding reaction curves were sequentially observed at the time of the addition (association phase, for 120 sec) and after the completion of the addition (dissociation phase, for 900 sec). After the completion of each observation, the sensor chip was regenerated by the addition of 3 M MgCl₂ (Wako Pure Chemical Industries) (for 30 sec). The obtained binding reaction curves were subjected to fitting analysis with 1:1 binding models using software BIA evaluation attached to the system to calculate the binding affinity (KD=kd/ka) for mouse and human EphA4.

Assay [4] addresses T1, human EphA4 extracellular …. In words: SPR (Biacore T200), human EphA4 extracellular region-SEAP-His captured on an anti-His antibody CM5 chip, antibody as analyte at 0.6-50 nM, 1:1 fit (run alongside F(ab')2). The protocol: as §1, §2

Consider one molecule from patent publication US20190077860A1 (EISAI R AND D MANAGEMENT, published 2019).

In general, IC50 refers to the concentration that inhibits the measured activity by half. A higher IC50 goes with weaker potency in that assay. Broadly, the koff is the rate constant with which the complex falls apart. The term kon denotes a measure of how fast the partners come together. Read a high kon as faster complex formation. As usually defined, the Kd is a measure of binding affinity in units of concentration. Higher therefore signals weaker binding.

T1 sequence (P54764 20-547): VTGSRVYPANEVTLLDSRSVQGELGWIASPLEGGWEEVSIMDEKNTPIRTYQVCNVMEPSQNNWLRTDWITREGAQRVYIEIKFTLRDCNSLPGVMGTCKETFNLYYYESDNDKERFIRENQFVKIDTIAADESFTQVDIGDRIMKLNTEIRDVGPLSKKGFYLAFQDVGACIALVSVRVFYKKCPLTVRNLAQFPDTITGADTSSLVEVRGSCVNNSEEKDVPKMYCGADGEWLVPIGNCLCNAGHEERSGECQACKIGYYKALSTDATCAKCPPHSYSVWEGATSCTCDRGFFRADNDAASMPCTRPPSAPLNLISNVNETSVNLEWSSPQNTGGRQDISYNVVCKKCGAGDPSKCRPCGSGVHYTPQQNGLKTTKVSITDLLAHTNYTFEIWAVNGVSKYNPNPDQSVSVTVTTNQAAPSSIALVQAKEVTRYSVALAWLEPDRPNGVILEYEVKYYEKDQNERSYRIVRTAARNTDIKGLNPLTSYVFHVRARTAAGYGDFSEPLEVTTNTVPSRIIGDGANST
T2 sequence (chain, as listed by the source limits assumed): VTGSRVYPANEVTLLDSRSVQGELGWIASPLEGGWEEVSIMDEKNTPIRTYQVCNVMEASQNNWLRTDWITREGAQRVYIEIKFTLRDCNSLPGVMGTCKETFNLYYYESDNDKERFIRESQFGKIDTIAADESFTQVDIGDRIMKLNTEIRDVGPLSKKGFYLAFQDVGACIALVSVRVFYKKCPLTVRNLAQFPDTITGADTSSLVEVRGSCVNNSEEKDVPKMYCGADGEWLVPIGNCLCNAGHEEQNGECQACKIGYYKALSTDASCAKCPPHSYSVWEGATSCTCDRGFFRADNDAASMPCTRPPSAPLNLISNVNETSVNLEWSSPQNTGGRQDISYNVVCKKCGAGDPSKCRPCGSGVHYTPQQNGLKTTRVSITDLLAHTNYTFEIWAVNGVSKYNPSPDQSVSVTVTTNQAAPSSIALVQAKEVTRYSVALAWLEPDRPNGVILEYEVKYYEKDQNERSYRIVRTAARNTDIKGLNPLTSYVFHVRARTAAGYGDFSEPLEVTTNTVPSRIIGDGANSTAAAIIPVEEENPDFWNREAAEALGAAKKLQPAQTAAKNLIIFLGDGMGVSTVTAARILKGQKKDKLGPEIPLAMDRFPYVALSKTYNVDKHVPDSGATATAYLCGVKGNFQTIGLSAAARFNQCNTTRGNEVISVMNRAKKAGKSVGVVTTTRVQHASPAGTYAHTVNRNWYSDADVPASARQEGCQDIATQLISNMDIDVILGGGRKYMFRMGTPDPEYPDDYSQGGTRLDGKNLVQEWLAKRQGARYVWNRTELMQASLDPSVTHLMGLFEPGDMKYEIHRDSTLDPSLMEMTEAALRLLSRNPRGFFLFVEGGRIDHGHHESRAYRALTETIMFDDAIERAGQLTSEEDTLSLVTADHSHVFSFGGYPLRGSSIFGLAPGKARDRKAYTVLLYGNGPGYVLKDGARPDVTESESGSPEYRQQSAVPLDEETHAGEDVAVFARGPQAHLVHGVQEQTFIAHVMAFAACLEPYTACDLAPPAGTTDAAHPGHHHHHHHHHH

B1: antibody A (antibody, mouse IgG1, kappa, V domains shown)
VH: QIQLVQSGPELKKPGETVKISCKASGYTFTDYSMHWVKQAPGKGLKWMGWINTETGEPTYADDFKGRFAFSLETSASTAYLQINNLKNEDTATYFCARIPLYYYGSRYWYFDVWGAGTTVTVSS
VL: DIQMTQSPASLSVSVGETVTITCRASENIYRNLAWYQQKQGKSPQLLVYAATNLADGVPSRFSGSGSGTQYSLKINSLQSEDFGSYYCQHFWGTPWTFGGGTKLEIKR
notes: mouse IgG1 heavy chain, kappa light chain; purified from hybridoma supernatant; also called anti-EphA4 monoclonal antibody; antibody A-IgG
As for B1, the IC50 in assay [1] was approximately 1.9 nM. In assay [2], the koff worked out at 0.000144 s⁻¹ and the kon amounted to 218000 M⁻¹ s⁻¹. For the same molecule, in assay [3], binding was characterised by a dissociation constant (Kd) of 0.0423 nM, the dissociation rate constant (koff) was 0.000288 s⁻¹ and the kon amounted to 6.81e+06 M⁻¹ s⁻¹. In assay [4], this molecule yielded a Kd of 0.0399 nM, a koff of 0.000236 s⁻¹ and a kon of 5.91e+06 M⁻¹ s⁻¹.
